Columns and labels:
[1] = target: T1, DENV2 strain 16681 premembrane (prM) protein, wild type (Dengue virus 2 strain 16681 (NC_001474)); test: cell-based or functional assay
T1 chain: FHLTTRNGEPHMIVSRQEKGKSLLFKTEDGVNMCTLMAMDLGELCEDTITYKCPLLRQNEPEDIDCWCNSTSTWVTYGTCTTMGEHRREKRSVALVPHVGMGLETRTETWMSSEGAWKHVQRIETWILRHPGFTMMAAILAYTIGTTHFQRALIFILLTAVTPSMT

[2] = target: DENV2 strain 16681 premembrane (prM) protein, wild type (dengue virus 2 strain 16681)
[3] = target: trimeric prM–E spike of immature DENV2 strain 16681 virions (dengue virus 2 strain 16681); test: cryo-EM structure

B1: prM13, murine prM-reactive monoclonal antibody (IgG2c) (antibody, V domains shown)
VH: AAQLQESGPELVKPGASVKISCKASGYTFTDYFINWVRQSHGKSLEWIGDFYPNNRGPTYNQKFEGKATLTVDKSSSTAYMELRSLTSDDSAVYYCARGLWDAWLSYWGQGTLVTVSA
VL: AIVATQSPAIMSASPGEKVTISCSASSSVSYMYWYQQKPGSSPKPWIYRTSNLASGVPTRFSGSGSGTSYSFTISSMEAEDAATYYCQQYHNYPRTFGGGTKAKSA
With B1 the “neutralisation of DENV2 RVPs, EC50 of the sensitive fraction of virions” value [1] was roughly 5 ng/mL.

B2: prM12, murine prM-reactive monoclonal antibody (IgG2c) (antibody, V domains shown)
VH: EVQLQESGPELVKPGTSVKMSCKASGYTFTDYNIHWVKQSHGKSLEWIGYINPNNGGNKYTQKFEGRATLTVGKSSSTAYMELRSLTSEDSAVYYCARSPMYFYYDGSYYFDYWGQGTSLSVSS
VL: DIVLTQSPASLAVSLGQRATISYRASKSVSTSGYSYMHWNQQKPGQPPRLLIYLVSNLESGVPARFSGSGSGTDFTLNIHPVEEEDAATYYCQHIRELTFGAAPSAAAR
With B2 the neutralisation of DENV2 RVPs, EC50 of the sensitive fraction of virions [2] was 5 ng/mL.

B3: prM12 Fab fragment (Fab, V domains shown)
VH: B2 VH
VL: B2 VL
For B3, the occupancy [3] was 100%.
